Data reported in article PMC13506345, “Loss of cellular RNA homeostasis contributes to MDA5 activation during virus infection” (Nature Immunology, 2026).
Where two headings read alike, the source gives them in different places.

What was measured:
[1] = biological target: T1, melanoma differentiation-associated protein 5 (MDA5) (Homo sapiens (THP1 cells, endogenous), UniProt Q9BYX4); experiment: immunoprecipitation; second IP (IP2): MDA5 eluted from IP1 with urea cracking buffer (6 M urea, 1% SDS, 65 °C), neutralised with T-20 IP buffer, incubated with antibody B on Protein G Dynabeads 2 h at 4 °C; IP analysed by western blot for MDA5; settings: both partners purified
T1 construct: MDA5 (melanoma differentiation-associated protein 5), endogenous in human monocytic THP1 cells; printed MW 135 kDa; native in the cell lysate for the first IP, denatured (6 M urea, 1% SDS eluate of the first IP) for the second IP; The same endogenous protein stood native (IP1) and denatured (IP2); the two states are told apart by the assays; also called endogenous MDA5; native MDA5; source: …
T1 sequence (Q9BYX4 whole entry): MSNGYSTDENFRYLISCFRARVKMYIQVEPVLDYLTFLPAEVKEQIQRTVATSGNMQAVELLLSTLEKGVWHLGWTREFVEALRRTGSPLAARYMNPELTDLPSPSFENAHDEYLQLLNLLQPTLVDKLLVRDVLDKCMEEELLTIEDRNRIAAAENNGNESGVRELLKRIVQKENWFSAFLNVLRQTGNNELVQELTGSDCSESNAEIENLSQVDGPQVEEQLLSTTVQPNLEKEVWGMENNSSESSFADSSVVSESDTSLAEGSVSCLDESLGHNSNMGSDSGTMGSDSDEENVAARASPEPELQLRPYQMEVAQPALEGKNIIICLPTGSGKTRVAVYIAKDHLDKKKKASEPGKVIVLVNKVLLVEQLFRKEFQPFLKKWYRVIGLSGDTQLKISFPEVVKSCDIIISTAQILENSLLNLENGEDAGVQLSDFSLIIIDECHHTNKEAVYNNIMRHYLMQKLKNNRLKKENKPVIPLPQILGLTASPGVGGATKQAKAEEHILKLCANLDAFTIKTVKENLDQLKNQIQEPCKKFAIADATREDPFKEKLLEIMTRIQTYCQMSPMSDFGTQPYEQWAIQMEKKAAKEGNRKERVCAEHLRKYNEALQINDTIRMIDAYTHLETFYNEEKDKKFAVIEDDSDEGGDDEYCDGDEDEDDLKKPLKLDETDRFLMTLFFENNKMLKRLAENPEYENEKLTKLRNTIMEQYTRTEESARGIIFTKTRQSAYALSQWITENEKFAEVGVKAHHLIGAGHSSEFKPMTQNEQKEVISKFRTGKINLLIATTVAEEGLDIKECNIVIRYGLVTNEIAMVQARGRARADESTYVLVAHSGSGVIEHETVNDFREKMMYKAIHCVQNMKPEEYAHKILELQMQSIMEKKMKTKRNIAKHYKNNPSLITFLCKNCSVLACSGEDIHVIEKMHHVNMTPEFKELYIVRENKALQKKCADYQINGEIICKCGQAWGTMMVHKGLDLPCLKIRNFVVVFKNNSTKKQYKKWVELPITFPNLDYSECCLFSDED

[2] = biological target: T1, melanoma differentiation-associated …; experiment: immunoprecipitation; first IP (IP1): antibody A coupled to Dynabeads, incubated with THP1 cell lysate (native MDA5) 2 h at 4 °C, high-salt washes; IP analysed by western blot for MDA5; settings: one partner purified
[3] = biological target: T1, melanoma differentiation-associated …

B1: anti-MDA5 monoclonal antibody B (clone 22) (antibody, V domains shown)
VH: QVQLQQSGPELVKPGASVKMSCKASGYTFTDYVISWVKQRTGQGLEWIGEIYPGSGNTFYNEKFKGKATLTADKSSNTAYMQLSSLTSEDSAVYFCARSGDYDLDYWGQGTSVTVSS
VL: EIVLTQSPTTMAASPGEKITITCSASSSISSNYLHWYQQKPGFSPKLLIYRTSNLASGVPARFSGSGSGTSYSLTIGTMEAEDVATYYCQQGGSIPLTFGAGTKLELK
notes: Hybridoma was non-recoverable; In some radiolabeling experiments pooled ascites fluids from several hybridoma clones including antibody B were used instead; Preincubated with Protein G Dynabeads for the IP; also called Ab B; monoclonal antibody 22
binding result [1]: binds

B2: anti-MDA5 monoclonal antibody A (clone 16) (antibody, V domains shown)
VH: QVQLQQSGPDLVRPGTSVKMSCKAAGYTFTNSWIGWLKQRPGHGLEWIGDIYPGGGDTNSNENFKGKATLTADTSSSTAYMQLSSLTSEDSAVYYCARSTVIMRGYFDVWGAGTMVTVSS
VL: DIQMTQSPASLSASVGETVTITCRASGNIHNFLAWYQQKQGKSPQLLVYNAKTLADGVPSRFSGSGSGTQYSLKINSLQPEDFGSYYCQHFWSTPLTFGAGTKLELK
notes: Monoclonal antibody raised against MDA5 (generated by C. Song and B. Jin); covalently coupled to Dynabeads for the IP; also called Ab A; monoclonal antibody 16; source: hybridoma cells grown in bioreactors (CELLline)
binding result [2]: binds

B3: mAb 17 (antibody, V domains shown)
VH: QVQLQQSGAELVRPGASVTLSCKASGYTFADYEIHWVRQTPVHGLEWIGAIGPETGNTAYNQKFKGKATLTVDKSSSTVYMDLRSLTSEDSAVYYCTRGRILDWGQGTLVTVSA
VL: DVVMTQTPLSLPVSLGDQASISCRSSQSLVHSNGNTYLHWYLQKPGQSPKLLIYKVSKRFSGVPDRFSGSGSGTDFTLKISRVEAEDLGVYFCSQSTHIPYTFGGGTKLEIK
binding result [3]: binds
